From patent publication US20250012721A1, “FLUORESCENCE DETECTION KIT FOR ACTIVATED COMPLEMENT C1s, DETECTION METHOD USING SAME, AND USE THEREOF” (JIANGSU UNIVERSITY, priority 2022, published 2025)

B1: MASP1: interfering antigenic substance (complement analogue), from Abnova (protein)
chain: HTVELNNMFGQIQSPGYPDSYPSDSEVTWNITVPDGFRIKLYFMHFNLESSYLCEYDYVKVETEDQVLATFCGRETTDTEQTPGQEVVLSPGSFMSITFRSDFSNEERFTGFDAHYMAVDVDECKEREDEELSCDHYCHNYIGGYYCSCRFGYILHTDNRTCRVECSDNLFTQRTGVITSPDFPNPYPKSSECLYTIELEEGFMVNLQFEDIFDIEDHPEVPCPYDYIKIKVGPKVLGPFCGEKAPEPISTQSHSVLILFHSDNSGENRGWRLSYRAAGNECPELQPPVHGKIEPSQAKYFFKDQVLVSCDTGYKVLKDNVEMDTFQIECLKDGTWSNKIPTCKIVDCRAPGELEHGLITFSTRNNLTTYKSEIKYSCQEPYYKMLNNNTGIYTCSAQGVWMNKVLGRSLPTCLPVCGLPKFSRKLMARIFNGRPAQKGTTPWIAMLSHLNGQPFCGGSLLGSSWIVTAAHCLHQSLDPEDPTLRDSDLLSPSDFKIILGKHWRLRSDENEQHLGVKHTTLHPQYDPNTFENDVALVELLESPVLNAFVMPICLPEGPQQEGAMVIVSGWGKQFLQRFPETLMEIEIPIVDHSTCQKAYAPLKKKVTRDMICAGEKEGGKDACAGDSGGPMVTLNRERGQWYLVGTVSWGDDCGKKDRYGVYSYIHHNKDWIQRVTGVRN
B2: MASP2: interfering antigenic substance (complement analogue), from Abnova (protein)
chain: TPLGPKWPEPVFGRLASPGFPGEYANDQERRWTLTAPPGYRLRLYFTHFDLELSHLCEYDFVKLSSGAKVLATLCGQESTDTERAPGKDTFYSLGSSLDITFRSDYSNEKPFTGFEAFYAAEDIDECQVAPGEAPTCDHHCHNHLGGFYCSCRAGYVLHRNKRTCSALCSGQVFTQRSGELSSPEYPRPYPKLSSCTYSISLEEGFSVILDFVESFDVETHPETLCPYDFLKIQTDREEHGPFCGKTLPHRIETKSNTVTITFVTDESGDHTGWKIHYTSTAQPCPYPMAPPNGHVSPVQAKYILKDSFSIFCETGYELLQGHLPLKSFTAVCQKDGSWDRPMPACSIVDCGPPDDLPSGRVEYITGPGVTTYKAVIQYSCEETFYTMKVNDGKYVCEADGFWTSSKGEKSLPVCEPVCGLSARTTGGRIYGGQKAKPGDFPWQVLILGGTTAAGALLYDNWVLTAAHAVYEQKHDASALDIRMGTLKRLSPHYTQAWSEAVFIHEGYTHDAGFDNDIALIKLNNKVVINSNITPICLPRKEAESFMRTDDIGTASGWGLTQRGFLARNLMYVDIPIVDHQKCTAAYEKPPYPRGSVTANMLCAGLESGGKDSCRGDSGGALVFLDSETERWFVGGIVSWGSMNCGEAGQYGVYTKVINYIPWIENIISDF
B3: Double-stranded C1r: interfering antigenic substance (complement analogue) that might exist in serum (protein)
chain: SIPIPQKLFGEVTSPLFPKPYPNNFETTTVITVPTGYRVKLVFQQFDLEPSEGCFYDYVKISADKKSLGRFCGQLGSPLGNPPGKKEFMSQGNKMLLTFHTDFSNEENGTIMFYKGFLAYYQAVDLDECASRSKSGEEDPQPQCQHLCHNYVGGYFCSCRPGYELQEDTHSCQAECSSELYTEASGYISSLEYPRSYPPDLRCNYSIRVERGLTLHLKFLEPFDIDDHQQVHCPYDQLQIYANGKNIGEFCGKQRPPDLDTSSNAVDLLFFTDESGDSRGWKLRYTTEIIKCPQPKTLDEFTIIQNLQPQYQFRDYFIATCKQGYQLIEGNQVLHSFTAVCQDDGTWHRAMPRCKIKDCGQPRNLPNGDFRYTTTMGVNTYKARIQYYCHEPYYKMQTRAGSRESEQGVYTCTAQGIWKNEQKGEKIPRCLPVCGKPVNPVEQRQRIIGGQKAKMGNFPWQVFTNIHGRGGGALLGDRWILTAAHTLYPKEHEAQSNASLDVFLGHTNVEELMKLGNHPIRRVSVHPDYRQDESYNFEGDIALLELENSVTLGPNLLPICLPDNDTFYDLGLMGYVSGFGVMEEKIAHDLRFVRLPVANPQACENWLRGKNRMDVFSQNMFCAGHPSLKQDACQGDSGGVFAVRDPNTDRWVATGIVSWGIGCSRGYGFYTKVLNYVDWIKKEMEEED

System: activated C1s
Experiment: Cross reaction test of fluorescence detection method for activated C1s
Format: biochemical
Conditions: for Measured concentration: interferent in PBS: double-stranded C1r 660 μg/mL, MASP1 and MASP2 5000 μg/mL; for Cross reaction rate (%): measured value/theoretical value×100%
Protocol: • 1. Preparation of a buffer: 1) Binding Buffer: 0.1 M morpholinoethanesulfonic acid (MES, pH=5.0); • 2) Washing Buffer: TBS containing 0.05% Tween 20; • 3) Blocking Buffer: containing 0.05 M Tris, 1.0% BSA, and 0.05% Tween 20; • 4) Desired Buffer: Tris buffer containing 0.05% Tween 20 and BSA; and • 5) Tris Buffer: 0.05 M Tris, 0.15 M NaCl, and 0.2% (w/v) polyethylene glycol 8000. • 2. Preparation of immunomagnetic beads (C1s recombinant antibody-coupled magnetic beads) • (1) 10 mg of magnetic beads (Merck carboxyl magnetic beads, with a particle size of 1 μm) were washed 3 times with 1 mL of Binding Buffer, and vortexed to mix evenly. • (2) 20 μg of the C1s recombinant antibody obtained in Example 1 was added into every 1 mg of the magnetic beads, mixed well, and vortexed at a room temperature (25° C.) for 15 min. • (3) 50 μg of a coupling agent was added into every 1 mg of the magnetic beads, mixed well, and vortexed at a room temperature for 1 h. • (4) 1 mL of Binding Buffer was added and vortexed at a room temperature for 3 h. • (5) The magnetic beads were washed 4 times with 0.5 mL of Washing Buffer. • (6) The magnetic beads were resuspended with 1 mL of Desired Buffer to obtain C1s recombinant antibody-coupled magnetic beads with a concentration of 5 mg/mL, and stored at 4° C. until later use. • 3. Detection of the enzymatic activity of activated C1s • (1) 60 μL of the C1s recombinant antibody-coupled magnetic beads were stirred evenly, subjected to magnetic suction to remove a supernatant, added with 200 μL of PBS to mix well, subjected to the magnetic suction to remove a supernatant, and washed repeatedly 2 times. • (2) 10 μL of a sample to be tested or activated C1s standards with different concentrations were diluted to 100 μL with PBS, and mixed vertically with the C1s recombinant antibody-coupled magnetic beads at a room temperature for 10 min. The magnetic suction was performed to discard a supernatant. According to the enzymatic activity of the C1s standard determined in Example 4, the enzymatic activity conversion of the C1s standards with different concentrations is shown in Table 2.
• (3) The magnetic beads were repeatedly washed 3 times with 100 μL of PBS. • (4) The magnetic beads were resuspended with 90 μL of Tris buffer. • (5) 10 μL of substrate peptide 3 was added at a concentration of 1 μg/mL. • (6) The detection was performed with a microplate reader at 360/40 excitation light wave and 460/40 emission light wave, with a best reaction time of 1 h as a detection point, and the fluorescence signals were measured and recorded. The straight line fitting was performed by taking a C1s enzymatic activity as an abscissa and a fluorescence signal as an ordinate with a double logarithmic Log-Log mathematical model and using a least square method to plot a standard curve.
In this example, the specificity of the activated C1s was tested. The interfering antigenic substances (complement analogues) that might exist in serum were detected, such as double-stranded C1r, MASP1, and MASP2. The double-stranded C1r, MASP1, and MASP2 were separately diluted with PBS, and the diluted concentrations were 0.66 mg/mL, 5 mg/mL, and 5 mg/mL, successively. The complement analogues were detected based on the steps of Example 5. A cross reaction rate of various substances was calculated. Cross reaction rate=measured value/theoretical value×100%. […] The cross reaction rates were all less than 0.5%.

Molecule	Measured concentration (C1s equivalent in brackets) [µg/mL]	Measured concentration [pmol/min/µg]	Cross reaction rate (%)	Cross reaction rate (%) (listed as double-stranded C1r)
B1	2	1.82	0.04	
B2	1.8	1.64	0.04	
B3	1	0.91	0.15	0.3
